biological target: 14-3-3τ (UniProt P27348); assay: cell-based or functional assay
Sequence (P27348 whole entry): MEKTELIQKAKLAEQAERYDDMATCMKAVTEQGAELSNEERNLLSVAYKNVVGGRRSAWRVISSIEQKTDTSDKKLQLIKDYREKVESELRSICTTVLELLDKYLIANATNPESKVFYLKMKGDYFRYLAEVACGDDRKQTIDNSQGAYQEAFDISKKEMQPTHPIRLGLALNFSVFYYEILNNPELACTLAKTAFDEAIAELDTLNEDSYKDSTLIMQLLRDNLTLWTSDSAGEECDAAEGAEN

| % Fluorescence Enhancement on phosphorylation, no quenching dye [%] | PKA-induced fluorescence change; Alizarin Red 5x [fold] | PKA-induced fluorescence change; Alizarin Red 10x [fold] | PKA-induced fluorescence change; Alizarin Red 25x [fold] | PKA-induced fluorescence change; Alizarin Red 50x [fold] | PKA-induced fluorescence change; Aniline Blue WS 5x [fold] | PKA-induced fluorescence change; Aniline Blue WS 10x [fold] | PKA-induced fluorescence change; Aniline Blue WS 25x [fold] | PKA-induced fluorescence change; Aniline Blue WS 50x [fold] | PKA-induced fluorescence change; Chlorazol Black E 5x [fold] | Substance |
| --- | --- | --- | --- | --- | --- | --- | --- | --- | --- | --- |
| 51 | 1.59 | 1.38 | 1.37 | 1.3 | 1.85 | 2.48 | 2.52 | 1.83 | 2.26 | P2, Ac-GRTGRRDap(Pyr)SYP-amide, serine-phosphorylated by PKA in the assay (peptide) |
| 19 | 1.28 | 1.21 | 1.17 | 1.05 | 1.5 | 2.17 | 3.79 | 0.99 | 1.79 | P3, Ac-GRTDap(Pyr)RRFSYP-amide, serine-phosphorylated by PKA in the assay (peptide) |
| 40 | 1.36 | 1.33 | 1.23 | 1.07 | 2.34 | 4.82 | 5.58 | 1.4 | 4.01 | P4, Ac-GRDap(Pyr)GRRFSYP-amide, serine-phosphorylated by PKA in the assay (peptide) |
| 64 | 1.7 | 1.59 | 1.49 | 1.5 | 3.02 | 5.36 | 6.04 | 1.23 | 5.62 | phosphorylated P5 peptide AcDap(Pyr)RTGRRFS(PO3 2-)YP-amide |

same assay, conditions: not given

| PKA-induced fluorescence change; Chlorazol Black E 10x [fold] | PKA-induced fluorescence change; Chlorazol Black E 25x [fold] | PKA-induced fluorescence change; Chlorazol Black E 50x [fold] | PKA-induced fluorescence change; Eriochrome Black T 5x [fold] | PKA-induced fluorescence change; Eriochrome Black T 10x [fold] | PKA-induced fluorescence change; Eriochrome Black T 25x [fold] | PKA-induced fluorescence change; Eriochrome Black T 50x [fold] | PKA-induced fluorescence change; Evans Blue 5x [fold] | PKA-induced fluorescence change; Evans Blue 10x [fold] | PKA-induced fluorescence change; Evans Blue 25x [fold] | Substance |
| --- | --- | --- | --- | --- | --- | --- | --- | --- | --- | --- |
| 2.84 | 0.6 | 0.35 | 1.46 | 1.42 | 1.13 | 3.71 | 1.92 | 1.37 | 1.01 | P2, Ac-GRTGRRDap(Pyr)SYP-amide, serine-phosphorylated by PKA in the assay (peptide) |
| 0.71 | 0.92 | 0.25 | 1.1 | 1.02 | 0.58 | 0.31 | 1.1 | 1.06 | 1.06 | P3, Ac-GRTDap(Pyr)RRFSYP-amide, serine-phosphorylated by PKA in the assay (peptide) |
| 0.93 | 0.55 | 0.87 | 1.32 | 1.12 | 0.59 | 0.59 | 0.98 | 0.91 | 0.89 | P4, Ac-GRDap(Pyr)GRRFSYP-amide, serine-phosphorylated by PKA in the assay (peptide) |
| 1.52 | 0.21 | 0.25 | 1.61 | 1.73 | 0.84 | 1.12 | 1.33 | 0.92 | 0.84 | phosphorylated P5 peptide AcDap(Pyr)RTGRRFS(PO3 2-)YP-amide |

same assay, conditions: not given

| PKA-induced fluorescence change; Evans Blue 50x [fold] | PKA-induced fluorescence change; Ponceau S 5x [fold] | PKA-induced fluorescence change; Ponceau S 10x [fold] | PKA-induced fluorescence change; Ponceau S 25x [fold] | PKA-induced fluorescence change; Ponceau S 50x [fold] | PKA-induced fluorescence change; Reactive Blue 2 5x [fold] | PKA-induced fluorescence change; Reactive Blue 2 10x [fold] | PKA-induced fluorescence change; Reactive Blue 2 25x [fold] | PKA-induced fluorescence change; Reactive Blue 2 50x [fold] | PKA-induced fluorescence change; Rose Bengal 5x [fold] | Substance |
| --- | --- | --- | --- | --- | --- | --- | --- | --- | --- | --- |
| 0.94 | 1.93 | 1.92 | 4.61 | 6.57 | 1.99 | 2.08 | 5.66 | 6.3 | 2.58 | P2, Ac-GRTGRRDap(Pyr)SYP-amide, serine-phosphorylated by PKA in the assay (peptide) |
| 0.99 | 1.81 | 2.26 | 2.75 | 2.88 | 1.48 | 2.29 | 3.56 | 1.68 | 2.7 | P3, Ac-GRTDap(Pyr)RRFSYP-amide, serine-phosphorylated by PKA in the assay (peptide) |
| 0.91 | 2.26 | 2.63 | 2.88 | 2.69 | 2.16 | 2.66 | 3.55 | 4.27 | 6.52 | P4, Ac-GRDap(Pyr)GRRFSYP-amide, serine-phosphorylated by PKA in the assay (peptide) |
| 0.78 | 2.85 | 3.3 | 3.23 | 4.36 | 2.28 | 3.99 | 6.44 | 5.79 | 8.36 | phosphorylated P5 peptide AcDap(Pyr)RTGRRFS(PO3 2-)YP-amide |

same assay, conditions: not given

| PKA-induced fluorescence change; Rose Bengal 10x [fold] | PKA-induced fluorescence change; Rose Bengal 25x [fold] | PKA-induced fluorescence change; Rose Bengal 50x [fold] | PKA-induced fluorescence change; Tartrazine 5x [fold] | PKA-induced fluorescence change; Tartrazine 10x [fold] | PKA-induced fluorescence change; Tartrazine 25x [fold] | PKA-induced fluorescence change; Tartrazine 50x [fold] | PKA-induced fluorescence change; Trypan Blue 5x [fold] | PKA-induced fluorescence change; Trypan Blue 10x [fold] | PKA-induced fluorescence change; Trypan Blue 25x [fold] | Substance |
| --- | --- | --- | --- | --- | --- | --- | --- | --- | --- | --- |
| 2.87 | 1.58 | 0.72 | 1.41 | 1.61 | 1.82 | 2.51 | 2.2 | 2.81 | 5.11 | P2, Ac-GRTGRRDap(Pyr)SYP-amide, serine-phosphorylated by PKA in the assay (peptide) |
| 1.98 | 1.13 | 0.97 | 1.19 | 1.34 | 1.47 | 1.02 | 2.23 | 2.72 | 1.91 | P3, Ac-GRTDap(Pyr)RRFSYP-amide, serine-phosphorylated by PKA in the assay (peptide) |
| 2.88 | 1.1 | 0.91 | 1.28 | 1.42 | 1.46 | 1.47 | 3.03 | 2.18 | 1.72 | P4, Ac-GRDap(Pyr)GRRFSYP-amide, serine-phosphorylated by PKA in the assay (peptide) |
| 3.45 | 1.02 | 0.95 | 1.43 | 1.52 | 1.79 | 2.05 | 6.21 | 2.72 | 3.61 | phosphorylated P5 peptide AcDap(Pyr)RTGRRFS(PO3 2-)YP-amide |

same assay, conditions: not given

| PKA-induced fluorescence change; Trypan Blue 50x [fold] | Phosphorylation-induced fluorescence fold-change; P2/Ponceau S (1:50), plate reader - bottom read [fold] | Phosphorylation-induced fluorescence fold-change; P2/Ponceau S (1:50), plate reader - top read [fold] | Phosphorylation-induced fluorescence fold-change; P2/Ponceau S (1:50), spectrofluorimeter [fold] | Phosphorylation-induced fluorescence fold-change; P5/Rose Bengal (1:5), plate reader - bottom read [fold] | Phosphorylation-induced fluorescence fold-change; P5/Rose Bengal (1:5), plate reader - top read [fold] | Phosphorylation-induced fluorescence fold-change; P5/Rose Bengal (1:5), spectrofluorimeter [fold] | Substance |
| --- | --- | --- | --- | --- | --- | --- | --- |
| 6.03 | 7 | 15 | 21 |  |  |  | P2, Ac-GRTGRRDap(Pyr)SYP-amide, serine-phosphorylated by PKA in the assay (peptide) |
| 1.6 |  |  |  |  |  |  | P3, Ac-GRTDap(Pyr)RRFSYP-amide, serine-phosphorylated by PKA in the assay (peptide) |
| 2.76 |  |  |  |  |  |  | P4, Ac-GRDap(Pyr)GRRFSYP-amide, serine-phosphorylated by PKA in the assay (peptide) |
| 3.48 |  |  |  | 8 | 30 | 64 | phosphorylated P5 peptide AcDap(Pyr)RTGRRFS(PO3 2-)YP-amide |
